Results: the nanobody polyreactivity screen of Harvey et al. (2022)

Experiment: yeast display, Sf9 membrane polyspecificity reagent, FACS + sequencing; frameworks hold sequencing errors
In short: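 Polyreactivity labels are assigned by the sorting gate from which each nanobody was recovered. The gates were low and high (top ~1%), set on anti-HA fluorescence for expression and streptavidin fluorescence for reagent binding. Before sorting, galactose-induced (36–48 hours) yeast display cells were stained for 1 hour at 4 °C with 10% biotinylated, detergent-solubilized Sf9 membrane reagent.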

| Sequence | polyreactivity (PSR sort gate) |
| --- | --- |
| QVQLVESGGGLVQAGGSLRLSCAASGGTFTAYAMGWYIQAPGKERELVAAISASGDSTYYADSVKGRFTISRDIAKNTVYLQMNSLKPEDTAVYYCNADWYRTGRRGSDYWGQGTQVTVSS | low polyreactivity |
| QVQLVESGGGLVQAGGSLRLSCAASGLTFYSYAMGWYRQAPGKERELVAAITWSGGGTYYADSVKGRFTISRDNAKNTVYLQMNSLKPEDTAVYYCAALSYNGVRYYYWGQGTQVTVSS | high polyreactivity |
| QVQLVESGGGLVQAGGSLRLSCAASGRIFGIYAMGWYRQAPGKERELVARITGGGSTNYADSVKARFTISRDNEKNTVYLQMNSLKPEDTAVYYCASTVRRIVGNITRYDYWGQGTQLTVSS | low polyreactivity |
| QVQLVESGGGLVQAGGSLRLSCAASGSTFIFYAMGWYRQAPGKERELVATISGGGSTYYADSVKGRFTISRDNAKNTVYLQMNSLKPEDTAVYYCATDVQVPGIGRSVYAYEYWGQGTQVTVSS | low polyreactivity |
| QVQLVGAGGGLVHAGGSLLLSCAASGFTLGSNAMGWYRQAPGKERALVAASSKSGGSTYYADSVKGRFTISRDNAKNTVYLQMTSLKPEDTAGYYCAARPIHYPPYYYWGQGTQVTVSS | high polyreactivity |
| QLQLVESGGGLVQAGGSLSLTFAASGIISNYNAMGWYIQAPGKERELVSAISRSGTRKYYADSVKGRYTISRDNAKNTVYLQMNSLKPEDTAVYDCAAPSWSSKGYCKGYYWGQGTQVTVSS | high polyreactivity |
| QVQLVESGGGLVQAGGSLRLSCAASGLIFARNAMVWYRQAPGKERELVAAIAKRGGSTFYADSVKVRFTISRDNAKNTVYLQMNSLKPEDTAVYYCNARSSETWHGDYWGQGTQVTVSS | high polyreactivity |
| QVQLEESGGGLGQAGGSLRLSCAASGSIFAYYAMGWYRQAPGKERELVAAISWGGGNTYYADSVKGRFTISRDNAKNNVYLQMNSLKPEDTAVYYCAAEDYYYYGVAYGYWGQGSQVTVSS | high polyreactivity |
| QVQLVESGGGLVQAGGSLRLSCAASGSIFGIYAMGWYRQAPGKERELVAAIRRGGSTYYADSVKGRFTISRDNAKNTVYLQMNSLKPEDTAVYYCAARKYRLWGKGVDYDYWGQGTQVTVSS | high polyreactivity |
| QVQLVESGGGLVQAGGSLRLRCAASGSIFKRYAMGWYRQAPGKERELVAAISWGGGRTYYADSVKGRFTISRDTAKNTVYLQMNSLKPEDTAVYYCNRVGSYGQSNSYQGGDYWGQGTQVTVSS | high polyreactivity |
| QVQLVESGGGIVQAGGSLRLSCAASGRNFDVYAMGWYRQAAGKERELVATISSSGVSTSYADSVKGRFTISRDNAKNTVYLQMNSLKPEDSAVYYCARKFLWKGFDYWGQGTQVTVSS | low polyreactivity |
| QVQLVESGGGLVQAGGSLRLSCAASGRTFLVYALGWYRQAPGKERELVAGITSGGGTYYADSVKGRFTISRDNAMNTVYLQINSLKPEETAVYYCAKYRWYGVYWGQVTQVTVSS | low polyreactivity |
| QVQLEESGGGLVQAGGSLRLSCAASGFTFALYAMGWYRPAPRNEMEFVAAISRRGGSTYYADSVKGRFTISRDNAKNTVYLQMNSLKPEDTAVYYCAANYPFGVYHGAPYGYWGQGTQVTVSS | high polyreactivity |
| QVQLVESGGGLDQAGGSLRLSCAASGRILTGYAMGWYRQAPVKVRELVAAISNDTDSTHYADSVKGRFTISRDNAKKTVYLQMNSLKPEATAVYYCATDAPLQKRWRRFDYWGQGTHVTVSS | low polyreactivity |
| QVQLVESGGGLVQAGGSLRLSCAASGFTFDRNAMGWYRQAPGKERGLVAAISSSGGRTYYADSVKGRFTISRDNAKNTVYLQMNSLKPEDTAVYYCAATSSYSYDYWGQGTQVTVSS | high polyreactivity |
| QVQLVESGGGLVQAGGSLRLSCAPSGSIFRGYTMGWYRQAPVKERELVAAISWSGGSTYYADSVKGRFTISRDNAKNTVYLQMNSLKPEDTAVYYCAAGDYYHRIFLWYDFWGQGTQVNVSS | low polyreactivity |

| Sequence | polyreactivity (PSR sort gate) |
| --- | --- |
| QVQLVDSGGGLVQAGGSLRLSCAASGRTFSYYGMGWYRQAPGQERELVACIRRRGGSTYYADSVKGRFTISRDNAKNNVSLQMNSLNPEDTAVYYCTAATYGDYSNLGYGYWGQGTQVTVSS | high polyreactivity |
| QVQLVESGGGLVQAGGSLRLICAASGSIFYRNAMGWYRQAPGKERELVAAISSDGSTNYADSVKGRFTISRDNAKNTVYLQMNSLKPEDTAVYYCAAPWTQILDYWGQGTQVTVSS | low polyreactivity |
| QVQLVESGGGLVQAGGSLRLSCAASGRIFQLYTMGWYIQAPGKERELVAAITSGTSTSYADSVKGRFTISRDNAKNTVYLQMNSLKPEDTAVYYCNKGSVSYSSVFVPYESDYWGQGTQVTVSS | low polyreactivity |
| QVQLVESGGGLVQAGGSLRLSCAPSGRTLFHYAMGWYRQAPGKERELVAAISSGGRTNYADSVKGRFTISRDNAKNTVYLQMNSLKPEDTAVYYCAARRFYLQHGFEYWGQGTQVTVSS | high polyreactivity |
| QVQLVESGGGLVQAGGSLRLSCAASGSIFTAYAMGWYRQAPGKEMELVAAITYNGGSTYYADSVKGRFTISRDNAKNTVYLQMNSLKPEDTAVYYCAARYWFYYDLYDYWGQGTQVTVSS | low polyreactivity |
| QVQLEESGGGLVQEGGSLRLSCADSGFTLWLNAMGWYRQAPGKERELVAAITTSDDGTYYADSVKGRFTISRDNAKNSVYLQMNSMKPEDTAVYYCAADYYSVLYDYWVQGTQVTVSS | low polyreactivity |
| QVQLVESGGGLVQAGGSLRLSCAASGSIFVRNAMGWYRQAPGKERELVAAITARGGSTYYADSVKGRFTISRDNAKNTVYLLMHSLKPEDTAVYYCARSYYYRGWAQWRYDYWGQGTQVTVSS | high polyreactivity |
| QVQLVESGGGLVQAGGSLRLSCAASGSTFYYYTMGWYRQAPGKERELVAAITYSGGSTRYADSVKGRFTISRDNAKNTVYLQMNSLKPEDTAVYYCAAGYYWSSFAFRDMDYWGQGTQVTVSS | high polyreactivity |
| QVQLVESGGGLVQAGGSLRISCAASGLTIVPNAMGWYRQAPGKERELVAAISNNGGRTYYADSVKGRFTISRDNAKNTVYLQMNSLKPEDTAVYYCAKYLSPGERHSYDYWGQGTQVTVSS | high polyreactivity |
| QVQLVESGGGIVQAGGSLRLSCAASGRIFGYYAMGWYRQAPGKERELVARISSSGGSTYYADSVKGRFTISRDNAKNTVYVQMNSLKPEDTAVDYCNTASNRYPGWRAEFDYWGQGTQVTVSS | low polyreactivity |
| QVQLVESGGGLVQAGGSLRLSCAASGFTFRYYAMGWYRQAPGKERELVAAITSGGGSTYYADSVKGRFTISRDNAKNTVYLQMNSLKPEDTAVYYCATKRARYSYDYWGQGTQVTVSS | high polyreactivity |
| QDQLVESGGGLVQAGGSLRLSCASSGITIATNAMGWSRQAPGKERELVAAISWSGGSTYYADSVKGRFTISRDNAKNTVFLQMNSLKPEDTAVYYCATGYSVWYDYWGQGTQVTVSS | low polyreactivity |
| QVQLVESGGGLVQAGGSLRLSCAASGFILYGNAMGLYRQAPGKERELVAAISRRGGSTYYADSVKGRFTISRDNAKNTVYLQMNSLKPEDTAVYYCAKDGPGGGTRIYEYWGQGTLVTVSS | high polyreactivity |
| QVQLVESGGGLVQAGGSLRLSCAASGIIFASNGMGWYRQAPGKERELVAAISSGGSTNYADSVKGLFTISRDHAKNTVYLQMNSLKPEDTAVYYCAADRWDRDYDYWGQGTQVTVSS | low polyreactivity |
| QVQLEESGGGLVQAGGSLRLSCAASGFIFPHYTMGWYRQAPGKERELVAAISSSGGSTYYADSVKGRFTISRDNAKKTVYLQMNSLKPEDTAVYYCPGPLPYYGQYDYWGQGTQVTVSS | low polyreactivity |
| QVQLVESGGGLVQAGGSLRLSCAASGIIFYVYAMGWYRQAPGKERELVATITRRDDSTYYADSVKGRFTISRDNAKNTVYLQMNSLKPEDTAVSYCNADFWLLSEYDYWGQGTQVTVSS | low polyreactivity |
